Experiment [1] deals with Nb1.46 (alpaca (Vicugna pacos)). In words: SDS-PAGE; 10% SDS-PAGE with Coomassie staining of the nanobody preparations after IMAC and dialysis.
The target of experiment [2] is T1, recombinant mouse Clec4F (CLEC4F/CLECSF13), soluble extracellular domain Ala65-Gly548 (Mus musculus, UniProt P70194).
T1 construct: Clec4F (C-type lectin domain family 4, member F), mouse, soluble extracellular domain Ala65-Gly548; the oligomeric state of the bought protein was not measured here; also called mClec4F; mouse Kupffer cell receptor Clec4F; source: bought: R&D Systems (NS0-derived, mouse myeloma cell line)
In words: SPR; Biacore T200; 400 RU of recombinant mouse Clec4F coupled to a CM5 chip; nanobodies flown at 30 ul/min at 1-400 nM; 1:1 binding model. As to conditions: both partners purified.

The target in experiment [3] is Nb3.60 (alpaca (Vicugna pacos)). Put plainly: SDS-PAGE; 10% SDS-PAGE with Coomassie staining of the nanobody preparations after IMAC and dialysis.
Experiment [4] addresses T1, recombinant mouse Clec4F …. In words: SPR; Biacore T200; 400 RU of recombinant mouse Clec4F coupled to a CM5 chip; nanobodies flown at 30 ul/min at 1-400 nM; 1:1 binding model. To be noted: both partners purified. The source holds these as a separate data set.
The target of experiment [5] is T2, recombinant mouse Clec4F (CLEC4F/CLECSF13), soluble extracellular domain Ala65-Gly548 (mouse) (UniProt P70194).
T2 sequence: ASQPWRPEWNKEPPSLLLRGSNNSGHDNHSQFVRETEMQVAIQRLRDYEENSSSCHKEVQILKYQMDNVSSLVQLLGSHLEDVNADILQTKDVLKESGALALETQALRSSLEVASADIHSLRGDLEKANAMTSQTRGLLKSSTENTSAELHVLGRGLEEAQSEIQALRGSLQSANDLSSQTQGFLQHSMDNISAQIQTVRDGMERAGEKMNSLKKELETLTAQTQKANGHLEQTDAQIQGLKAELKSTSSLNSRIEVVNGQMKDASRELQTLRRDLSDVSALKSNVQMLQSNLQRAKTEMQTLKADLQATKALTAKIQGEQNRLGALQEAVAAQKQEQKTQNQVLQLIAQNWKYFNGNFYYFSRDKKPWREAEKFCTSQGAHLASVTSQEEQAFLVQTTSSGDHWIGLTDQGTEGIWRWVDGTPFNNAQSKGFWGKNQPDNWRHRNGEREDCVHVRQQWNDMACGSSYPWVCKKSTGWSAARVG
The description is as above.

For experiment [6], the target named is T1, recombinant mouse Clec4F …. In words: SPR; epitope binning: Clec4F immobilised on the chip; 1st nanobody injected (50 nM) to saturation, then a mix of 1st and 2nd nanobody; extra RU read. As to conditions: both partners purified. On the technique in general: SPR reads the build-up and loss of mass on a sensor chip optically.

Broadly, the stoichiometry N is a count of units in the complex or per binding partner. What is called Kd is the equilibrium constant for the complex coming apart. In general, koff refers to the first-order rate constant of dissociation. One may read the kon as a measure of how fast the partners come together.

B1: Nb1.46 (VHH)
VHH: QVQLVESGGGLVQAGGSLRLSCAASGRTFSSYAMGWFRQAPGKERECVAAMDWSTSATYYADSVKGRFTISRDNAKNTVYLQMNSLKPEDTAVYYCAADLDYSDYGPFPGDMDYWGKGTQVTVSS
notes: The preparation held dimers beside monomers (SDS-PAGE); extra cysteine at position 52 (IMGT); also called R2-46; group G1; source: E. coli WK6 periplasm, purified (IMAC Ni-NTA, dialysis); not shown: His6, C-terminal, kept
For B1, the stoichiometry N in experiment [1] is 2. In addition, the binding result in experiment [2] is reported as “binds”.

B2: Nb3.60 (VHH)
VHH: QVQLVESGGGLVQPGGSLRLSCVASGTIFSMYGVYWYRQAPGNQREVVAWISSSGNTNYVNAVKGRFTISRDNAKNTTWLQMHSLKPEDAAVYYCRLGMNYWGKGTQVTVSS
notes: The preparation held dimers beside monomers (SDS-PAGE); also called R2-60; group G3; source: E. coli WK6 periplasm, purified (IMAC Ni-NTA, dialysis)
Take B2: the stoichiometry N in experiment [3] worked out at 2. In experiment [4], the Kd turned out to be 0.618 nM, the off-rate constant (koff) was 0.00475 s⁻¹ and the kon is 7.69e+06 M⁻¹ s⁻¹.

B3: Nb14.70 (VHH)
VHH: QVQLVESGGGLVQAGDSLSLVCTLPERSRFAVGWFRQASGKEREIVAAISWLGMNEYYGDSVKGRSTISRDNAKNTVRLQMDSLKREDTAVYYCAADYSLDNVRRTPRFWGQGTQVTVSS
In the case of B3, in experiment [5], the koff is 0.0606 s⁻¹ and the kon is 3.06e+07 M⁻¹ s⁻¹.

B4: Nb6.39 (VHH)
VHH: QVQLVESGGGLVQPGGSLRLSCAASGFTFSTYAMRWVRQAPGKGLEWVSDINQGGGVTSYRDSVLGRFTISRDDAKNTLYLQMNSLKREDTAVYYCTNGRSRGQGTQVTVSS
notes: also called R3-39; group G6; source: E. coli WK6 periplasm, purified (IMAC Ni-NTA, dialysis)
Consider B4, for which the binding result in experiment [6] is reported as “binds”.

For the origin of these results see PMC7937711, “Development and Characterization of Nanobodies Targeting the Kupffer Cell” (Frontiers in Immunology, 2021).
